Experimental data from EP4741425A1 (Shenzhen Synthetica Pioneering Co., Ltd., dated 2026).

Target: T1, CXCR2 on the surface of neutrophils (primary neutrophils from blood of C57BL/6 mice) (mouse, UniProt P35343 1-359)
T1 construct: whole, on cells; No CXCR2-specific control is reported
T1 sequence (looked up): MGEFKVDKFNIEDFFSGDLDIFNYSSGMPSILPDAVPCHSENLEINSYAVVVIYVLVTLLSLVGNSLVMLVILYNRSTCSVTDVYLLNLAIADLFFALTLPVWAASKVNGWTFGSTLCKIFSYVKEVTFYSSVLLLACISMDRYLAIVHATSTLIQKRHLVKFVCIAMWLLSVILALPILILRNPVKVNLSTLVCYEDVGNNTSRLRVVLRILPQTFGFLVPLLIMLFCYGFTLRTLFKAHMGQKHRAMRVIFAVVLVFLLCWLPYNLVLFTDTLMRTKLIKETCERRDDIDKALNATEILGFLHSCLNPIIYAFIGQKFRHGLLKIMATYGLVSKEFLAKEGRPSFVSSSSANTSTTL
Assay: flow cytometry on primary mouse blood neutrophils, anti-His tag PE detection

Binder | binding result
Nb127D01 (VHH, Expressed in E. coli BL21(DE3) as signal peptide + nanobody + HA-His tag and purified on a nickel column by the His tag; The signal peptide is left out here as a secretion signal; also called Nb127D01-HA-his; not shown: HA-His tag linked directly to the C-terminus) VHH: EVQLVESGGGLVQAGESLRLSCAASGSTFDFKVMGWYRQPPGKQREGVAAIRLSGNMHYAESVKGRFAISKANAKNTVYLQMNSLRPEDTAVYYCKVNIRGQDYWGQGTQVTVSS | binds
Nb163E3 (VHH, Expressed in E. coli BL21(DE3) as signal peptide + nanobody + HA-His tag and purified on a nickel column by the His tag; The signal peptide is left out here as a secretion signal; also called Nb163E3-HA-his; not shown: HA-His tag linked directly to the C-terminus) VHH: EVQLVESGGGLVQPGGSVRLSCVASGRIFSSNAMGWFRQAPGKEREFVAAITWRSGGSAYYADSAKGRFTISRDNAKNTVYLQMNSLKPEDTAVYYCAAGGSSWLSFPPDYWGQGTQVTVSS | binds
